Experimental data published in patent US20220177579A1 (published 2022).

T1: human CD19 on CD19(+) NALM6 acute lymphoid leukemia cells (UniProt P15391 20-556)
T1 chain: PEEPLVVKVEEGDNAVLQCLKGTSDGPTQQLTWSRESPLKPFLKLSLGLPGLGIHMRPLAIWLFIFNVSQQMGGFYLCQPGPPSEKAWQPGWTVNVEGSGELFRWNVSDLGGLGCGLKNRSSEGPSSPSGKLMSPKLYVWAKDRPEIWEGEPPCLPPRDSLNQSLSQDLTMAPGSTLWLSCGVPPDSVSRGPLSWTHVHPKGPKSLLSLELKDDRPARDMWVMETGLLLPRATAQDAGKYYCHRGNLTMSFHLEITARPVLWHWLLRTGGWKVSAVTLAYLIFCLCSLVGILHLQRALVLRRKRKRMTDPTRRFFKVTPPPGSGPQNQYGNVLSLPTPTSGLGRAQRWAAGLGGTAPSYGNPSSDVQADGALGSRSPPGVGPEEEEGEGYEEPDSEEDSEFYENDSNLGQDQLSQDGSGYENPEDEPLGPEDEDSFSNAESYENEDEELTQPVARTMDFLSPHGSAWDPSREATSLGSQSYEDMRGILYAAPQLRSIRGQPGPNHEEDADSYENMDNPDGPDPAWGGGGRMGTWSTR


Target: T1, human CD19 on CD19(+) NALM6 acute …
Assay: FACS

EC50 [µg/mL] | Binder
0.19 | L3+H8b (antibody, V domains shown) VH: QVQLQESGPGLVKPSETLSVTCTVSGVSLPDYGVSWIRQPPGKGLEWIGVIWGSETTYYNPSLKSRLTISKDTSKNQFSLKLSSVTAADTAVYYCAKHYYYGGSYAMDYWGQGTSVTVSS VL: DIQMTQSTSSLSASVGDRVTITCRASQDISKYLNWYQQKPGKAVKLLIYHTSRLHSGVPSRFSGSGSGTDYTFTISSLQPEDIATYYCQQGNTLPYTFGGGTKLEIT
0.28 | L3+H5b (antibody, V domains shown) VH: QVQLQESGPGLVKPSETLSLTCTVSGVSLPDYGVSWIRQPPGKGLEWIGVIWGSETTNYNPSLKSRVTISKDTSKSQVSLKLSSVTAADTAVYYCAKHYYYGGSYAMDYWGQGTSVTVSS VL: DIQMTQSTSSLSASVGDRVTITCRASQDISKYLNWYQQKPGKAVKLLIYHTSRLHSGVPSRFSGSGSGTDYTFTISSLQPEDIATYYCQQGNTLPYTFGGGTKLEIT
0.64 | L3+H3 (antibody, V domains shown) VH: QVQLQESGPGLVKPSETLSLTCTVSGVSLPDYGVSWIRQPPGKGLEWIGVIWGSETTNYNPSLKSRLTISVDTSKNQFSLKMSSVTAADTAVYYCAKHYYYGGSYAMDYWGQGTSVTVSS VL: DIQMTQSTSSLSASVGDRVTITCRASQDISKYLNWYQQKPGKAVKLLIYHTSRLHSGVPSRFSGSGSGTDYTFTISSLQPEDIATYYCQQGNTLPYTFGGGTKLEIT
0.41 | L2+H3 (antibody, V domains shown) VH: QVQLQESGPGLVKPSETLSLTCTVSGVSLPDYGVSWIRQPPGKGLEWIGVIWGSETTNYNPSLKSRLTISVDTSKNQFSLKMSSVTAADTAVYYCAKHYYYGGSYAMDYWGQGTSVTVSS VL: DIQMTQSPSSLSASVGDRVTITCQASQDISKYLNWYQQKPGKAVKLLIYHTSRLHSGVPSRFSGSGSGTDYTLTISSLQPEDIATYFCQQGNTLPYTFGGGTKLEIT
0.13 | L3+H6b (antibody, V domains shown) VH: QVQLQESGPGLVKPSETLSLTCTVSGVSLPDYGVSWIRQPPGKGLEWLGVIWGSETTYYNPSLKSRVTISVDNSKNQFSLKLSSVTAADTAVYYCAKHYYYGGSYAMDYWGQGTSVTVSS VL: DIQMTQSTSSLSASVGDRVTITCRASQDISKYLNWYQQKPGKAVKLLIYHTSRLHSGVPSRFSGSGSGTDYTFTISSLQPEDIATYYCQQGNTLPYTFGGGTKLEIT
